One block for each molecule: values may come before it.
Experiments:
[1] = target: EEF1G (eukaryotic elongation factor 1 subunit gamma), endogenous (human (endogenous in HEK293T)) (UniProt P26641); assay: mass photometry; EEF1S complex recovered by glutathione-Sepharose from HEK293T lysate and run on SEC (Superdex 200); stoichiometry from the mass (~270 kDa) and Coomassie staining; complex formed in cells and co-purified
[2] = target: endogenously Strep-tagged EEF1G (human (endogenous in HEK293T)) (UniProt P26641); assay: mass photometry; EEF1H complex recovered by affinity purification of endogenous strep-tagged EEF1G from HEK293T lysates; stoichiometry predicted from molecular weight of components and Coomassie staining; complex formed in cells and co-purified
Chain of endogenously Strep-tagged EEF1G (human (endogenous in HEK293T)) (P26641 whole entry): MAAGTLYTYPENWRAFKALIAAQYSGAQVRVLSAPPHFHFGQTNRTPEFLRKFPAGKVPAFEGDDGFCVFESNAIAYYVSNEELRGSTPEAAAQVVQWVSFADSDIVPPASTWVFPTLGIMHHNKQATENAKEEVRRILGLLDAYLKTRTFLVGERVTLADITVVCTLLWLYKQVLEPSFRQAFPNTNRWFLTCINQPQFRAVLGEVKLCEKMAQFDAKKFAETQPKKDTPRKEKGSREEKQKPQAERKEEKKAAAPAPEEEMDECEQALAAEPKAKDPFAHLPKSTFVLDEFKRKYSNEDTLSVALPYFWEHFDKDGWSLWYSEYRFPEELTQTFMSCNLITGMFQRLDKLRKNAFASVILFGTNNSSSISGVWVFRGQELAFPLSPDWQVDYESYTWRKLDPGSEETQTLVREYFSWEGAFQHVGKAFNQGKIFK

[3] = target: T1, endogenously Strep-tagged EEF1G (human (endogenous in HEK293T), UniProt P26641 1-437); assay: as above; conditions: partners not purified
T1 construct: EEF1G, human, endogenous locus of HEK293T edited to carry an internal Twin-Strep tag in the unstructured region between the GST and C-terminal domains; also called strep-EEF1G; source: endogenous locus tagged by CRISPR-Cas9 knock-in, HEK293T; not shown: Twin-Strep, internal (in the unstructured region between the GST and C-terminal domains), kept
T1 sequence (P26641 whole entry, the tested form may be a part): as the sequence (P26641 whole entry) above

[4] = target: T2, EEF1G (eukaryotic elongation factor 1 subunit gamma), endogenous (human (endogenous in HEK293T), UniProt P26641 1-437); assay: mass photometry; EEF1S complex recovered by glutathione-Sepharose from HEK293T lysate and run on SEC (Superdex 200); stoichiometry from the mass (~270 kDa) and Coomassie staining; complex formed in cells and co-purified; conditions: partners not purified
T2 construct: EEF1G, human, endogenous untagged protein in HEK293T lysate, recovered on glutathione-Sepharose; source: endogenous, HEK293T lysate
T2 sequence (P26641 whole entry): as above

Chain of EEF1G (eukaryotic elongation factor 1 subunit gamma), endogenous (human (endogenous in HEK293T)) (P26641 whole entry): as above

stoichiometry N [1]: 1
copies in the EEF1H complex (with six copies of EEF1G) [2]: 6 copies
Molecule: EEF1A, endogenous (from UniProt P68104 1-462) (natural protein)

copies in the EEF1H complex (with six copies of EEF1G) [3]: ~4 copies
B1: EEF1D, endogenous (natural protein, human (endogenous in HEK293T), UniProt P29692 1-281, looked up)
chain: MATNFLAHEKIWFDKFKYDDAERRFYEQMNGPVAGASRQENGASVILRDIARARENIQKSLAGSSGPGASSGTSGDHGELVVRIASLEVENQSLRGVVQELQQAISKLEARLNVLEKSSPGHRATAPQTQHVSPMRQVEPPAKKPATPAEDDEDDDIDLFGSDNEEEDKEAAQLREERLRQYAEKKAKKPALVAKSSILLDVKPWDDETDMAQLEACVRSIQLDGLVWGASKLVPVGYGIRKLQIQCVVEDDKVGTDLLEEEITKFEEHVQSVDIAAFNKI
notes: EEF1D (guanine nucleotide exchange factor subunit of EEF1H), human, endogenous in HEK293T; source: endogenous, HEK293T lysate

copies in the EEF1H complex (with six copies of EEF1G) [3]: ~2 copies
B2: valine tRNA synthase (VARS), endogenous (enzyme, human (endogenous in HEK293T), UniProt P26640 1-1264, looked up)
chain: MSTLYVSPHPDAFPSLRALIAARYGEAGEGPGWGGAHPRICLQPPPTSRTPFPPPRLPALEQGPGGLWVWGATAVAQLLWPAGLGGPGGSRAAVLVQQWVSYADTELIPAACGATLPALGLRSSAQDPQAVLGALGRALSPLEEWLRLHTYLAGEAPTLADLAAVTALLLPFRYVLDPPARRIWNNVTRWFVTCVRQPEFRAVLGEVVLYSGARPLSHQPGPEAPALPKTAAQLKKEAKKREKLEKFQQKQKIQQQQPPPGEKKPKPEKREKRDPGVITYDLPTPPGEKKDVSGPMPDSYSPRYVEAAWYPWWEQQGFFKPEYGRPNVSAANPRGVFMMCIPPPNVTGSLHLGHALTNAIQDSLTRWHRMRGETTLWNPGCDHAGIATQVVVEKKLWREQGLSRHQLGREAFLQEVWKWKEEKGDRIYHQLKKLGSSLDWDRACFTMDPKLSAAVTEAFVRLHEEGIIYRSTRLVNWSCTLNSAISDIEVDKKELTGRTLLSVPGYKEKVEFGVLVSFAYKVQGSDSDEEVVVATTRIETMLGDVAVAVHPKDTRYQHLKGKNVIHPFLSRSLPIVFDEFVDMDFGTGAVKITPAHDQNDYEVGQRHGLEAISIMDSRGALINVPPPFLGLPRFEARKAVLVALKERGLFRGIEDNPMVVPLCNRSKDVVEPLLRPQWYVRCGEMAQAASAAVTRGDLRILPEAHQRTWHAWMDNIREWCISRQLWWGHRIPAYFVTVSDPAVPPGEDPDGRYWVSGRNEAEAREKAAKEFGVSPDKISLQQDEDVLDTWFSSGLFPLSILGWPNQSEDLSVFYPGTLLETGHDILFFWVARMVMLGLKLTGRLPFREVYLHAIVRDAHGRKMSKSLGNVIDPLDVIYGISLQGLHNQLLNSNLDPSEVEKAKEGQKADFPAGIPECGTDALRFGLCAYMSQGRDINLDVNRILGYRHFCNKLWNATKFALRGLGKGFVPSPTSQPGGHESLVDRWIRSRLTEAVRLSNQGFQAYDFPAVTTAQYSFWLYELCDVYLECLKPVLNGVDQVAAECARQTLYTCLDVGLRLLSPFMPFVTEELFQRLPRRMPQAPPSLCVTPYPEPSECSWKDPEAEAALELALSITRAVRSLRADYNLTRIRPDCFLEVADEATGALASAVSGYVQALASAGVVAVLALGAPAPQGCAVALASDRCSIHLQLQGLVDPARELGKLQAKRVEAQRQAQRLRERRAASGYPVKVPLEVQEADEAKLQQTEAELRKVDEAIALFQKML
notes: valine tRNA synthase (VARS), human, endogenous in HEK293T; source: endogenous, HEK293T lysate

stoichiometry N [4]: ~1
copies in the EEF1H complex (with six copies of EEF1G) [3]: ~4 copies
B3: EEF1B, endogenous (natural protein, human (endogenous in HEK293T), UniProt P24534 1-225, looked up)
chain: MGFGDLKSPAGLQVLNDYLADKSYIEGYVPSQADVAVFEAVSSPPPADLCHALRWYNHIKSYEKEKASLPGVKKALGKYGPADVEDTTGSGATDSKDDDDIDLFGSDDEEESEEAKRLREERLAQYESKKAKKPALVAKSSILLDVKPWDDETDMAKLEECVRSIQADGLVWGSSKLVPVGYGIKKLQIQCVVEDDKVGTDMLEEQITAFEDYVQSMDVAAFNKI
notes: EEF1B (guanine nucleotide exchange factor subunit of EEF1H), human, endogenous in HEK293T; source: endogenous, HEK293T lysate
